Results from the RNAGym collection of RNA variant scans (doi:10.7554/elife.80360).

B1: HDV Ribozyme (parent)
chain: GGCCGGCAUGGUCCCAGCCUCCUCGCUGGCGCCGGCUGGGCAACAUUCCGAGGGGACCGUCCCCUCGGUAAUGGCGAAUGGGACCCA

Variants of: B1
Assay: self-cleavage, relative activity (ratio to wild type); higher = more cleavage; co-transcriptional
Work on GGCCGGCAUGGUCCCAGCCUCCUCACUGGCGCGGGCUGGGCAACAUUCCGAGGGGACCGUCCCCUCGGUAAUGGCGAAUGGGACCCA [G25A C33G] yielded a self-cleavage of 0.0228. GGCCGGCAUGGUCCCAGCCUCCUCACUGGCGCAGGCUGGGCAACAUUCCGAGGGGACCGUCCCCUCGGUAAUGGCGAAUGGGACCCA [G25A C33A] gave a self-cleavage of 0.0863. In the case of GGCCGGCAUGGUCCCAGCCUCCUCACUGGCGCCGGCUGGGCAACAUUCCGAGGGGACCGUCCCCUCGGUAAUGGCGAAUGGGAGCCA [G25A C84G], the self-cleavage is reported as 0.17. For GGCCGGCAUGGUCCCAGCCUCCUUGCUGGCGCCGGCUGGGCAACAUUCCGAGGGGACCGUCCCCUCGGUAAUGGCGAAAGGGACCCA [C24U U79A], the self-cleavage was 0.208. GGCCGGCAUGGUCCCAGCCUCCUUGCUGGCGCCGGCUGGGCAACAUUCCGAGGGGACCGUCCCCUCGGUAAAGGCGAAUGGGACCCA [C24U U72A] showed a self-cleavage of 0.404. GGCCGGCAUGGUCCCAGCCUCCUUGCUGGCGCCGGCUGGGCAACAUUCCGAGGGGACCGUCCCCUCCGUAAUGGCGAAUGGGACCCA [C24U G67C] gave a self-cleavage of 0.78. Work on GGCCGGCAUGGUCCCAGCCUCCUCACUGGCGCCGGCUUGGCAACAUUCCGAGGGGACCGUCCCCUCGGUAAUGGCGAAUGGGACCCA [G25A G38U] yielded a self-cleavage of 0.0744. For GGCCGGCAUGGUCCCAGCCUCCUCACUGGCGCCGGCUCGGCAACAUUCCGAGGGGACCGUCCCCUCGGUAAUGGCGAAUGGGACCCA [G25A G38C], the self-cleavage was 0.0791. With GGCCGGCAUGGUCCCAGCCUCCUCACUGGCGCCGGCUGGGCCACAUUCCGAGGGGACCGUCCCCUCGGUAAUGGCGAAUGGGACCCA [G25A A42C] the self-cleavage was 0.0462. GGCCGGCAUGGUCCCAGCCUCCUUGCUGGCGCCGGCUGGGCAACAUUCCGAGGGGACCGUCCCCUCGGUAAUGUCGAAUGGGACCCA [C24U G74U] showed a self-cleavage of 0.143. Work on GGCCGGCAUGGUCCCAGCCUCCUUGCUGGCGCCGGCUGGGCAACAUUCCGAGGGGACCGUCCCCUCGGUAAUGGCGAAUGGAACCCA [C24U G82A] yielded a self-cleavage of 0.107. GGCCGGCAUGGUCCCAGCCUCCUCACUGGCGCCGGCUGGGCAACAUUCCGAGGGGACCGUCCCCUGGGUAAUGGCGAAUGGGACCCA [G25A C66G] showed a self-cleavage of 0.376. GGCCGGCAUGGUCCCAGCCUCCUCACUGGCCCCGGCUGGGCAACAUUCCGAGGGGACCGUCCCCUCGGUAAUGGCGAAUGGGACCCA [G25A G31C] gave a self-cleavage of 0.0739. Variant GGCCGGCAUGGUCCCAGCCUCCUCACUGGCGCCGGCUGGGCAACAUUCCGAGGGGACCGUCCCCUCGGUAAUGGCGGAUGGGACCCA [G25A A77G] has a self-cleavage of 0. Work on GGCCGGCAUGGUCCCAGCCUCCUCACUGGCGCCGGCUGGGCAACAUUCCGAGGGGACCGUCCCCUCGGUAAUGGCGUAUGGGACCCA [G25A A77U] yielded a self-cleavage of 0. GGCCGGCAUGGUCCCAGCCUCCUCACUGGCGCCGGCUGAGCAACAUUCCGAGGGGACCGUCCCCUCGGUAAUGGCGAAUGGGACCCA [G25A G39A] gave a self-cleavage of 0.172. GGCCGGCAUGGUCCCAGCCUCCUCACUGGCGACGGCUGGGCAACAUUCCGAGGGGACCGUCCCCUCGGUAAUGGCGAAUGGGACCCA [G25A C32A] gave a self-cleavage of 0.0848. With GGCCGGCAUGGUCCCAGCCUCCUUGCUGGCGCCGGCUGGGCAACAUUCCGAGGGGACCGUCCCCUCGGUAAUGGCGAAUGUGACCCA [C24U G81U] the self-cleavage was 0.169. GGCCGGCAUGGUCCCAGCCUCCUCACUGGCGCCGGCUGGGCAACAUUCCGAAGGGACCGUCCCCUCGGUAAUGGCGAAUGGGACCCA [G25A G52A] showed a self-cleavage of 0.0863. GGCCGGCAUGGUCCCAGCCUCCUCACUGGCGCCGGCUGGGCAACAUUCCGACGGGACCGUCCCCUCGGUAAUGGCGAAUGGGACCCA [G25A G52C] gave a self-cleavage of 0.174. GGCCGGCAUGGUCCCAGCCUCCUCACUGGCGCCGGCUGGGCAACAUUCCGAGGGGACCGUCCCCUCGGUAAUGGCGAAUGGGACCCG [G25A A87G] gave a self-cleavage of 0.163. Work on GGCCGGCAUGGUCCCAGCCUCCUCACUGGCGCCGGCUGGGCAACAUUCCGAGGGGACCGUCCCCUCGGUAAUGGCGAAUGGGACCCU [G25A A87U] yielded a self-cleavage of 0.277. In the case of GGCCGGCAUGGUCCCAGCCUCCUCACUGGCGCCGGCUGGGCAACAUUCCGAGGGGACCGUCCACUCGGUAAUGGCGAAUGGGACCCA [G25A C63A], the self-cleavage is reported as 0.125. For GGCCGGCAUGGUCCCAGCCUCCUCACUGGCGCCGGCUGGGCAACAUUCCGAGGGGACCGUCCCCUCGGUAGUGGCGAAUGGGACCCA [G25A A71G], the self-cleavage was 0.0594. With GGCCGGCAUGGUCCCAGCCUCCUCACUGGCGCCGGGUGGGCAACAUUCCGAGGGGACCGUCCCCUCGGUAAUGGCGAAUGGGACCCA [G25A C36G] the self-cleavage was 0.0997. For GGCCGGCAUGGUCCCAGCCUCCUCACUGGCGCCGGAUGGGCAACAUUCCGAGGGGACCGUCCCCUCGGUAAUGGCGAAUGGGACCCA [G25A C36A], the self-cleavage was 0.0554. Variant GGCCGGCAUGGUCCCAGCCUCCUCACUGGCGCCGGCUGGGCAACAUUCCGAGGGGACCGUCCCCUCGGUUAUGGCGAAUGGGACCCA [G25A A70U] has a self-cleavage of 0.17. In the case of GGCCGGCAUGGUCCCAGCCUCCUCACUGGCGCCGGCUGGGCAACAUUCCGAGGGGACCGUCCCCUCGGUCAUGGCGAAUGGGACCCA [G25A A70C], the self-cleavage is reported as 0.138. GGCCGGCAUGGUCCCAGCCUCCUUGCUGGCGCCGGCUGGGCAACAUUCCGAGGGGACCGUCCCCUCGGUAAUCGCGAAUGGGACCCA [C24U G73C] showed a self-cleavage of 0.0773. With GGCCGGCAUGGUCCCAGCCUCCUUGCUGGCGCCGGCUGGGCAACAUUCCGAGGGGACCGUCCCCACGGUAAUGGCGAAUGGGACCCA [C24U U65A] the self-cleavage was 0.469. Work on GGCCGGCAUGGUCCCAGCCUCCUCACUGACGCCGGCUGGGCAACAUUCCGAGGGGACCGUCCCCUCGGUAAUGGCGAAUGGGACCCA [G25A G29A] yielded a self-cleavage of 0.0567. GGCCGGCAUGGUCCCAGCCUCCUCACUGGCGCCGGCUGGGCAAGAUUCCGAGGGGACCGUCCCCUCGGUAAUGGCGAAUGGGACCCA [G25A C44G] gave a self-cleavage of 0.0923.
